Assay: yeast display, Sf9 membrane polyspecificity reagent, FACS + sequencing; frameworks hold sequencing errors
Summary of the method: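 Using colony PCR, genes from sorted yeast display clones were amplified, then sequenced on MiSeq at 2 × 250 and filtered by CDR length. The clones had been stained with 10% biotinylated, detergent-solubilized Sf9 membrane reagent for 1 hour at 4 °C and sorted by FACS into low and high (top ~1%) gates on anti-HA and streptavidin fluorescence. Polyreactivity labels come from the gate of origin.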
In the case of “QVQLVESGGGLVQAGGSLRLSCGASGRNFPGNAMGWYRQAPGKEREFVAVITSRTGNTYYADSVKGRFTISRDTAKNTVYLQMNSLKPEDSAVYYCNGEQYIWSEDYWGQGTQVSVSS”, the “polyreactivity (PSR sort gate)” value is reported as “low polyreactivity”.
For “QVQLVESGGGLVQAGGSLRLSCGASGRTFSYYPMGWYRQAPGKERELVAAITSSGGRTYYADSVKGRFTISRDNAKNTVYLQMNSLKPEDTAVYYCAKELVKRYYWGQGTQVTVSS”, the “polyreactivity (PSR sort gate)” value was “high polyreactivity”.
For “QVQLVESGGGLVQAGGSLRLSCGASGSTFAINAMGWYRQAPGKERELVAAINWSGTTTYYADSVKGRFTISRDNAKNTVYLQMNSLKPEDTAVYYCNARYYVLRGYDYWGQGTQVTVSS”, the “polyreactivity (PSR sort gate)” value was “low polyreactivity”.
For “QVQLVESGGGLVQAGGSLRLSCGASGSTFNWYTMGWYRQAPGKERELVDAISMNGGRTYYADSVKWRFTISRDKAKNTVYLQMNSLKPEDTAVYYCAAQISFYFAQYNLARFRGYYWGQGTQVTVSS”, the “polyreactivity (PSR sort gate)” value was “high polyreactivity”.
For “QVQLVESGGGLVQAGGSLRLSCGASGSTFPTYAMGWYRQAPGKERELVAVITSSGGRTYYADSVKGRFTISRDNAKNTVYLQMNSLKPEDTAVYYCAKGSGTIYNLYDYWGQGTQVTVSS”, the “polyreactivity (PSR sort gate)” value was “high polyreactivity”.
In the case of “QVQLVESGGGLVQAGGSLRLSCGATGTTFYYYAMGWYRQAPGKERELVPGINTSGGNTYYADSVKGRFTISRDNAKNTVYLQMNSLKPEDTAVYYCAVEGGSLHYAWYLWGYRSGGEYWGQGTQVTVSS”, the “polyreactivity (PSR sort gate)” value is reported as “high polyreactivity”.
For “QVQLVESGGGLVQAGGSLRLSCPASGFIINVYVMGWYRQAPGKERELVAAISGGGSTYYADSVKGRFTISRDNAKNTVSLQMNSLKPEDTAVYYCAAVYYYQNEGYDFWGQGTQVTVSS”, the “polyreactivity (PSR sort gate)” value was “low polyreactivity”.
For “QVQLVESGGGLVQAGGSLRLSCPASGFTFSYYVMGWYRQSPGKERELVAAISSGGRTYYADSVKGRFTISRDNAKNTVYFQMNSLKPEDTAVYYCAAVRYSNEDDYWGQGTQVTVSS”, the “polyreactivity (PSR sort gate)” value was “high polyreactivity”.
For “QVQLVESGGGLVQAGGSLRLSCPASGHIFDYNALGWYRQAPGKERELVAAITSGGTTTYADSVKGRFTISRDNAKHTVYLQMNSLKPEDTAVYYCARKRYFGGWSRYGYGYWGQGTQVTVSS”, the “polyreactivity (PSR sort gate)” value was “high polyreactivity”.
With “QVQLVESGGGLVQAGGSLRLSCPASGIIFHPYAMGWYRQAPGKERQLVAVITWPGDSTYYADSVKGRFTISRDNAKNTVYVQMNSLKPEDTAVYYCNVEAWGTSGELPYDYWGQGTQVTVSS” the “polyreactivity (PSR sort gate)” value was “low polyreactivity”.
For “QVQLVESGGGLVQAGGSLRLSCPASGNIFWWNARGWYRQAPGKERELVAAITSDSTTYYADSVKGRFTISRDNAKNTVYLQMNSLKPEDTAVYYCAAYSYGGQGVDYGYWGQGTQVTVSS”, the “polyreactivity (PSR sort gate)” value was “low polyreactivity”.
For “QVQLVESGGGLVQAGGSLRLSCPASGRIFTSYAMGWYRQEPGKERELVAAINRGGSTYYADSVKGRFTISRDNAKNTVYLQMNSLKPEDTAVYYCNASQPYNPEFDYWRQGTQVTVSS”, the “polyreactivity (PSR sort gate)” value was “low polyreactivity”.
In the case of “QVQLVESGGGLVQAGGSLRLSCPASGRIFVRNAMGWYRQAPGKERELVAAITTSGGRTYYADSVKGRFTISRDLAKNPVYLQMNSLKPEDTAVYYCAAETRYRNFPYYYWGQCTQVTVSS”, the “polyreactivity (PSR sort gate)” value is reported as “high polyreactivity”.
With “QVQLVESGGGLVQAGGSLRLSCPASGRILYLNVLGWYRQEPGKERELVASITVSGGITYYADSVKGRFTISRDNAKNTVYLQMNSLKPEDTAVYYCAVDAYPPFFYFTSVWFSYDYWGQGTQVTVSS” the “polyreactivity (PSR sort gate)” value was “low polyreactivity”.
For “QVQLVESGGGLVQAGGSLRLSCPASGRTFKRYAMGWYRQEPGKEMELVASISWRGGSTYYADSVKGRFTISRDNAKNTVYLQMNSLKPEDTAVYYCAAEGPGNVYKLDYWGQGTQVTVSS”, the “polyreactivity (PSR sort gate)” value was “low polyreactivity”.
With “QVQLVESGGGLVQAGGSLRLSCPASGRTFYLYAMGWYRQAPGKVRELVARISGGGGRTYYADSVKGRFTISRDNAKNTVYLQMNSLKPEDSAVYYCNAQSPRGFTTPRQVYPLNGYWGQGTQVTVSS” the “polyreactivity (PSR sort gate)” value was “high polyreactivity”.
For “QVQLVESGGGLVQAGGSLRLSCPASGSIFGWYPMAWYRQAPGKERELVAAITFYSVNTYYQDSVKGRFTISRDNAKNNVYLQMNSLKPEDTAVYYCSARGATVVSRGKLYYWGQGTQVSVSS”, the “polyreactivity (PSR sort gate)” value was “low polyreactivity”.
For “QVQLVESGGGLVQAGGSLRLSCPASGSIFNSYAMGWYRQAPGKERELVAAISSGGSTNYADSVKGRFTISRDNAKNTVYLQMNSLKPEDTAVYYCAKGSRKSGYKYYHGRVWFGYWGQGTQVTVSS”, the “polyreactivity (PSR sort gate)” value was “high polyreactivity”.
In the case of “QVQLVESGGGLVQAGGSLRLSCPASGSIFYFYGMGWYRQAPGKEREFVAAISLYGGSTYYADSVKGRFTISRDNAKNTVYFQMNSLKPEDTAVYYCAARAWSYYHGKEDYWGQGTQVTVSS”, the “polyreactivity (PSR sort gate)” value is reported as “high polyreactivity”.
For “QVQLVESGGGLVQAGGSLRLSCPASGSIVGYYVMGWYRQAPGKERELVAAISWSSGSTYYADSVKGRFTISRDNAKNTVYLQKNSLKPEDTAVYYCNASNVYFWFVTLEFDYWGQGTQVTVSS”, the “polyreactivity (PSR sort gate)” value was “low polyreactivity”.
For “QVQLVESGGGLVQAGGSLRLSCPASGSSSVYNAMGWYRQAPGKERELVAAISWSGGRTSYADSVKGRFTISRDIAKNTVYLQMNSLKPEDTAVYFCAAHTVYSPPRVAGPGYDYWGQGTQVTVSS”, the “polyreactivity (PSR sort gate)” value was “low polyreactivity”.
With “QVQLVESGGGLVQAGGSLRLSCPASGSTFPYYAMGWYRQAPGKERELVARINWGGSSTYYADSVKGRFTISRDNAKNTVYLQMNSLKPEDTAVYYCARYSSRWSLMDYWGQGTQVTVSS” the “polyreactivity (PSR sort gate)” value was “high polyreactivity”.
In the case of “QVQLVESGGGLVQAGGSLRLSCPASGSTFQYYHMGWYRQEPGKERELVASITGSGDSTYYADSVKGRFTISRDNAKNTVYLQMNSLNPEDTAVYYCAAQITWSGYYDYWGQGTQVTVSS”, the “polyreactivity (PSR sort gate)” value is reported as “low polyreactivity”.
With “QVQLVESGGGLVQAGGSLRLSCPASGSTFRSNVMGWYRQAPGKERELVAAITSSGGSTYYADSVKGRFTISRDNAKNTVYLQMNSLKPEDTAVYYCAAVGYGWDPYKRLVRHSYDSWGQGTQVTVSS” the “polyreactivity (PSR sort gate)” value was “low polyreactivity”.
In the case of “QVQLVESGGGLVQAGGSLRLSCPASGSTFRYYAMGWYRPAPGKERELVAGISSSGGSTYYADSVKGRFTISRDNAKNTVYLQMNSLKPEDTAVYYCNAARGTSRSWAVFADYDYWGQGSQVTVSS”, the “polyreactivity (PSR sort gate)” value is reported as “high polyreactivity”.
With “QVQLVESGGGLVQAGGSLRLSCPASGSTFYGYVMGGYRQAPGKERELVAAISGSTYYADSVKGRFTISRDNAKNTVYLQMNSLKPEDTAVYYCNADDYRSYGGDSWGQGTQVTVSS” the “polyreactivity (PSR sort gate)” value was “low polyreactivity”.
In the case of “QVQLVESGGGLVQAGGSLRLSCPASGYILHKYAMGSYRQAPGKERELVATISGGGGSTYYADSVKGRFTISRDNAKNTVYLQMNSLKPEDTAVYYCAIEYPWLPRSYEYGGQGTQVTVSS”, the “polyreactivity (PSR sort gate)” value is reported as “low polyreactivity”.
In the case of “QVQLVESGGGLVQAGGSLRLSCPDSVFTFGATVMGWYRQAPGKEREFVAGITWSGDSTYYADSVKGRFTISRDNAKNTVYFQMNSLKPEDTAVYYCAADVYDGAYILDYDYWGQGTQVTVSS”, the “polyreactivity (PSR sort gate)” value is reported as “low polyreactivity”.
In the case of “QVQLVESGGGLVQAGGSLRLSCPDSVRIFYYNTMGWYRQAPGKERQLVAAISAGGGRTYYADSVKGRFTISRDNAKNTVYFQMNRLKPEDTAVYYCAARKRAQQGTRDHDYWGQGSQVTVSS”, the “polyreactivity (PSR sort gate)” value is reported as “high polyreactivity”.
With “QVQLVESGGGLVQAGGSLRLSCPSSGFTFSAYAMGWYRQAPGKERELVAAISTRGGSTRYADSVKGRFTISRDNAKNTVNVQMNSLTPDDTAVYYCAADTRSFYRYDYWGQGTQVTVSS” the “polyreactivity (PSR sort gate)” value was “high polyreactivity”.
For “QVQLVESGGGLVQAGGSLRLSCSACGSIFFYYAMGWYRQAPGKERELVAAITFTGGSTYYADSVKGRFTISRDNAKNTVYLRMNSLKPEDTAVYYCAADWYYGDEYEYWGQGTQVTVSS”, the “polyreactivity (PSR sort gate)” value was “high polyreactivity”.
In the case of “QVQLVESGGGLVQAGGSLRLSCSASGFIFRFYGMGWYRQAPGKERELVASIRRSGGSTYYADSVKGRFTISRDNAKNSVYLQMNSLKPEDTAVYDCAARWYVYVHFERYYWGQGTQVTVSS”, the “polyreactivity (PSR sort gate)” value is reported as “high polyreactivity”.
For “QVQLVESGGGLVQAGGSLRLSCSASGFIFYLYTMGWYRQAPGKERELVAAITKSGTRTYYADSVKGRFTISRDNAKNTVYLQMNSLKPEDTAVYYCAAEWGSSYRWGMDYWGQGTQVTVSS”, the “polyreactivity (PSR sort gate)” value was “high polyreactivity”.
For “QVQLVESGGGLVQAGGSLRLSCSASGFIYPNNAMGWYRQAPGKERELVARISYGGGDTHYADSVKGRFTISRDNAKNTVYLQMNSLKPEDTAVYYCAVKDGQDDYWGQGTQVTVSS”, the “polyreactivity (PSR sort gate)” value was “low polyreactivity”.
With “QVQLVESGGGLVQAGGSLRLSCSASGFTFWVNAMGWYRQAPGKERELVAAISRRGGRTYYADSVKGRYTISRDNAKNTVYLQMNSLKPEDTAVYYCNKEDVGCSESDYWGQGTQVTVSS” the “polyreactivity (PSR sort gate)” value was “high polyreactivity”.
For “QVQLVESGGGLVQAGGSLRLSCSASGFTFYYAMGWYRQAPGKERELVAAITSSGTTYYADSVKGRFTISRDNAKNTVYLQMHSLKPEDTAVYYCNAVRWSKYAFYDYWGQGTQVTVSS”, the “polyreactivity (PSR sort gate)” value was “high polyreactivity”.
In the case of “QVQLVESGGGLVQAGGSLRLSCSASGIIFGWYAMGWYRKAPGKEREFVATISWSGASTYYADSVKGRFTISRDNAKNTVYLQLNSLKPEDTAVYYCAAVGRRQAFGRRDYWGQGKQVTVSS”, the “polyreactivity (PSR sort gate)” value is reported as “high polyreactivity”.
For “QVQLVESGGGLVQAGGSLRLSCSASGIIFIYYGMGWYRKAPGKERELVAAISRSGGRTYYADSVKGRFTISRDNANNTVYFHMNSLKPEDTAVYYCANTYTQTGFDYWGQGTQVTVSS”, the “polyreactivity (PSR sort gate)” value was “high polyreactivity”.
For “QVQLVESGGGLVQAGGSLRLSCSASGIIFIYYGMGWYRKAPGTERELVAAISRSGGRTYYADSVKGRFTISRDNANNIVYLQMNSLKPEDTAVYYCATTYTPTGFDYWGQGTQVTVSS”, the “polyreactivity (PSR sort gate)” value was “high polyreactivity”.
With “QVQLVESGGGLVQAGGSLRLSCSASGIIFKYYAMGWYRQAPVKERELVAAISRSSGSTYYADSVKGRFTISRDNAKNTVYLQMNSLKPEDTAVYYCAASGWQQKLDYWVQGTQVTVSS” the “polyreactivity (PSR sort gate)” value was “high polyreactivity”.
With “QVQLVESGGGLVQAGGSLRLSCSASGITFGRNTKGWYRQAPGKERELVAASDSGGNTYADSVKGRFTISRDNAKNTVYLQMNSLKPEDTAVYYCAVDGGEFSSYGYWGQGTQVTVSS” the “polyreactivity (PSR sort gate)” value was “low polyreactivity”.
